± gives the standard deviation of the averaged measurements.
System: ATP
Test: switch fluorescence ratio, 500 uM ATP over buffer (Cy3 cluster intensity, sum of 5 cycles each) (fold (ratio)); higher = stronger signal-on switching upon ATP binding; sequences stand for … in TCGTCGGCAGCGTCAGATGTGTATAAGAGACAGTTTTTTTTTTTTTTTTTTTTTTTTT…TC
Conditions: aptamer strand: ATP DNA aptamer (quencher-CACCTGGGGGAGTATTGCGGAGGAAGG + anchor), 100 nM annealed; ATP concentration: 500 uM
Summary of the method: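 Cy3-labelled switching-strand clusters on a modified Illumina MiSeq flow-cell were annealed to 100 nM quencher-labelled ATP aptamer and imaged first in selection buffer, then after 15 min with 500 uM ATP at 22 °C. NaOH stripping and re-annealing separated each of five buffer/ATP cycles, and clusters outside 100-1000 RFU were excluded. The fluorescence ratio sums target-cycle Cy3 intensity over buffer-cycle Cy3 intensity per cluster and averages it per switch-domain sequence.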
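Further: ATP exposure 15 min at 22 °C before imaging.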

With GCCAGTATCC the switch fluorescence ratio was 0.997 ± 0.014.

CATGTTTAGG showed a switch fluorescence ratio of 0.986 ± 0.017.

With ACCAGTGCTG the switch fluorescence ratio was 1 ± 0.04.

In the case of GGCCGCAGGT, the switch fluorescence ratio is reported as 0.987 ± 0.023.

GAGGGATAGC showed a switch fluorescence ratio of 0.991 ± 0.025.

TTATGGGCAA gave a switch fluorescence ratio of 1.1 ± 0.02.

Sequence AAGAATATCA has a switch fluorescence ratio of 1.02 ± 0.016.

In the case of CCGTGGGTGT, the switch fluorescence ratio is reported as 1.26 ± 0.15.

CTCGGGGGTA showed a switch fluorescence ratio of 0.963 ± 0.031.

Work on CTATTGGGCT yielded a switch fluorescence ratio of 1.01 ± 0.012.

TCTTAGGGGA showed a switch fluorescence ratio of 0.998 ± 0.017.

Work on GGAGTCAGAA yielded a switch fluorescence ratio of 0.995 ± 0.014.

CTCTGATGGG gave a switch fluorescence ratio of 0.986 ± 0.021.

In the case of TACATGTGCT, the switch fluorescence ratio is reported as 0.996 ± 0.035.

In the case of GCATCTCGCG, the switch fluorescence ratio is reported as 1.01 ± 0.021.

Sequence GGGCGAAGGG has a switch fluorescence ratio of 0.987 ± 0.032.

Sequence TATGTAAGGA has a switch fluorescence ratio of 0.985 ± 0.041.

ATTAGTCTGC showed a switch fluorescence ratio of 0.996 ± 0.033.

Sequence ATTTTTGGTT has a switch fluorescence ratio of 1.01 ± 0.042.

In the case of GTGTATAGCA, the switch fluorescence ratio is reported as 1.03 ± 0.014.

AGTGTGTTCT gave a switch fluorescence ratio of 1.02 ± 0.021.

With TACTTGATCT the switch fluorescence ratio was 1.001 ± 0.0033.

Sequence GCGTTGAGCT has a switch fluorescence ratio of 0.987 ± 0.023.

Work on CATAATCTAG yielded a switch fluorescence ratio of 1.03 ± 0.013.

Sequence ATTAGGAGTC has a switch fluorescence ratio of 0.999 ± 0.012.

Work on CCGTAGTGGT yielded a switch fluorescence ratio of 2.9 ± 1.4.

With GATGAGGGGG the switch fluorescence ratio was 1.03 ± 0.09.

AATAAAATGG showed a switch fluorescence ratio of 0.998 ± 0.028.

TCATTGGGG gave a switch fluorescence ratio of 0.974 ± 0.029.

TATACTTAGT showed a switch fluorescence ratio of 1.025 ± 0.0036.

In the case of GCTTGTCTCG, the switch fluorescence ratio is reported as 1 ± 0.053.

For GGTTTAGTTT, the switch fluorescence ratio was 0.99 ± 0.035.

Work on GGAATCCGGG yielded a switch fluorescence ratio of 0.987 ± 0.037.

With GACGGGGACA the switch fluorescence ratio was 1.06 ± 0.023.

Work on CTTTTTAATG yielded a switch fluorescence ratio of 0.98 ± 0.028.

Sequence TGATATCCGA has a switch fluorescence ratio of 1.04 ± 0.013.

Work on CACGGTCTAA yielded a switch fluorescence ratio of 1.03 ± 0.043.

TGTGGCCGGG showed a switch fluorescence ratio of 0.998 ± 0.024.

Work on CGGGCAGGTT yielded a switch fluorescence ratio of 1.11 ± 0.18.

In the case of GGGAGTATTT, the switch fluorescence ratio is reported as 1 ± 0.034.

In the case of CATGTGGGGT, the switch fluorescence ratio is reported as 0.992 ± 0.034.

With TAAAGACCGA the switch fluorescence ratio was 1.08 ± 0.048.

GGGATGGGTC gave a switch fluorescence ratio of 0.985 ± 0.02.

Sequence TTTGGACTGG has a switch fluorescence ratio of 1.01 ± 0.067.

GTGTGAAAGC gave a switch fluorescence ratio of 1.011 ± 0.0035.

AAGGGCATTG was tested, and the switch fluorescence ratio was 0.998 ± 0.015.

For AGGGACTAGG, the switch fluorescence ratio was 0.994 ± 0.011.

TAAGATCTGA was tested, and the switch fluorescence ratio was 1.02 ± 0.051.

In the case of TATAACGCTT, the switch fluorescence ratio is reported as 1.01 ± 0.017.

TATTCGGGAG showed a switch fluorescence ratio of 1.0052 ± 0.00035.

For GGCTCCAACG, the switch fluorescence ratio was 1.06 ± 0.013.

Sequence CAGGTCTTGG has a switch fluorescence ratio of 1.01 ± 0.03.

AGTGCATTGG was tested, and the switch fluorescence ratio was 1 ± 0.024.

In the case of ATGCGAAGGT, the switch fluorescence ratio is reported as 1.04 ± 0.037.

GGTAGTGCGT showed a switch fluorescence ratio of 0.968 ± 0.043.

TTTTCTTTTC was tested, and the switch fluorescence ratio was 1.09 ± 0.084.

GGGGATGTGA gave a switch fluorescence ratio of 0.967 ± 0.037.

With GGGGTGAGTA the switch fluorescence ratio was 0.98 ± 0.053.

In the case of TTTCAATGGA, the switch fluorescence ratio is reported as 0.974 ± 0.018.

Sequence TCGTTTGGTT has a switch fluorescence ratio of 1.04 ± 0.026.

GAAGGTGTGC gave a switch fluorescence ratio of 1.07 ± 0.1.

Work on TATGCTTTGG yielded a switch fluorescence ratio of 0.98 ± 0.03.

For GGGGGGAGCG, the switch fluorescence ratio was 1 ± 0.021.

TTTGCAGTTT gave a switch fluorescence ratio of 0.997 ± 0.024.

TCGGTCAAAT showed a switch fluorescence ratio of 0.977 ± 0.011.

With TCAGATTTGG the switch fluorescence ratio was 0.9901 ± 0.006.

With ATACGGGGTT the switch fluorescence ratio was 1.008 ± 0.0032.

In the case of TCATGTATTG, the switch fluorescence ratio is reported as 1.01 ± 0.037.

With TCGCCGCTTT the switch fluorescence ratio was 1.76 ± 0.11.

With TGAATGAGTT the switch fluorescence ratio was 1.02 ± 0.03.

With TGGTTAAAAG the switch fluorescence ratio was 0.977 ± 0.051.

TCCCGGCAGA gave a switch fluorescence ratio of 0.997 ± 0.013.

TTTGAGTATT showed a switch fluorescence ratio of 0.992 ± 0.047.

GAGTTTAGCG showed a switch fluorescence ratio of 0.982 ± 0.025.

ACCGGGCTGC gave a switch fluorescence ratio of 1.06 ± 0.024.

CGCGACTTAA showed a switch fluorescence ratio of 1.044 ± 0.0047.

For GGTGTGTGAG, the switch fluorescence ratio was 0.965 ± 0.01.

For TAATTACCTC, the switch fluorescence ratio was 1.04 ± 0.013.

CAGGGGTGTG was tested, and the switch fluorescence ratio was 0.996 ± 0.0076.

CCTAATGGGC showed a switch fluorescence ratio of 1.014 ± 0.0092.

With TTGTTGGGGT the switch fluorescence ratio was 1.05 ± 0.12.

For GCCCGGGGGG, the switch fluorescence ratio was 1.03 ± 0.0083.

TAGGCGGTGT showed a switch fluorescence ratio of 1.01 ± 0.012.

ATTTTAAGTA was tested, and the switch fluorescence ratio was 0.987 ± 0.031.

For TCTCGGCTAT, the switch fluorescence ratio was 2.98 ± 0.2.

For ACCTTTAGTG, the switch fluorescence ratio was 1.03 ± 0.019.

ACGGGGTGGA was tested, and the switch fluorescence ratio was 1 ± 0.037.

AAGGTCGTAT gave a switch fluorescence ratio of 0.9922 ± 0.009.

Work on ATGATGGGGA yielded a switch fluorescence ratio of 0.987 ± 0.021.

TAAACGGGAT gave a switch fluorescence ratio of 0.999 ± 0.019.

TTTTGTTGTC showed a switch fluorescence ratio of 0.984 ± 0.037.

Sequence GATGTGGGTT has a switch fluorescence ratio of 1.03 ± 0.032.

TTTTTAGTTA was tested, and the switch fluorescence ratio was 0.981 ± 0.01.

For CGGAATTCAC, the switch fluorescence ratio was 1.39 ± 0.017.

With ATTTAAATTA the switch fluorescence ratio was 1.01 ± 0.017.

GGGTATTCTG gave a switch fluorescence ratio of 0.98 ± 0.053.

Work on ATTGGTGTCT yielded a switch fluorescence ratio of 1.01 ± 0.034.

Sequence ATAAGTGTGT has a switch fluorescence ratio of 0.958 ± 0.047.

Work on TGACTGAAGG yielded a switch fluorescence ratio of 0.9503 ± 0.0065.

Work on CGTGTATGG yielded a switch fluorescence ratio of 1.016 ± 0.0031.

TTTTAGTTGT was tested, and the switch fluorescence ratio was 0.994 ± 0.032.

TGTGTGAGAA gave a switch fluorescence ratio of 0.997 ± 0.022.

Sequence GGATTTAATA has a switch fluorescence ratio of 1.02 ± 0.03.

Work on GGGTTTTAAG yielded a switch fluorescence ratio of 1 ± 0.021.

In the case of CGTATCTCTA, the switch fluorescence ratio is reported as 0.989 ± 0.01.

With TTCGGCGCGG the switch fluorescence ratio was 1.21 ± 0.32.

GTGGTGTATC gave a switch fluorescence ratio of 1.02 ± 0.019.

Sequence TGTGCGGGGG has a switch fluorescence ratio of 1.02 ± 0.019.

With GTGTTCGGCG the switch fluorescence ratio was 1.07 ± 0.066.

Sequence CGCGAGAGGA has a switch fluorescence ratio of 1.01 ± 0.016.

For AAGGTTAGGT, the switch fluorescence ratio was 1.03 ± 0.041.

TAGGGGATAT showed a switch fluorescence ratio of 0.964 ± 0.025.

With TATTTGGTCG the switch fluorescence ratio was 1.02 ± 0.047.

With ATTTGAGCTG the switch fluorescence ratio was 0.947 ± 0.13.

Work on GGGGATTATT yielded a switch fluorescence ratio of 0.991 ± 0.036.

Sequence CACGCTTCCG has a switch fluorescence ratio of 1.07 ± 0.047.

In the case of TTTTGCACGG, the switch fluorescence ratio is reported as 1.04 ± 0.0077.

AGAGAGTTTG gave a switch fluorescence ratio of 1.01 ± 0.02.

With GTGGGTATGT the switch fluorescence ratio was 0.983 ± 0.017.

TAGAGGAGTT was tested, and the switch fluorescence ratio was 0.951 ± 0.051.

For CATGTTAGGT, the switch fluorescence ratio was 1.01 ± 0.025.

AGGGGGTTTG showed a switch fluorescence ratio of 1.01 ± 0.033.

Sequence TGCAGCATTA has a switch fluorescence ratio of 2.31 ± 0.19.

In the case of TTAGGGAGGG, the switch fluorescence ratio is reported as 0.998 ± 0.032.

With CAGGAGGGCA the switch fluorescence ratio was 1.042 ± 0.0049.

With TGATTTAGGC the switch fluorescence ratio was 0.9803 ± 0.009.

TCAGTGCCAG was tested, and the switch fluorescence ratio was 0.992 ± 0.022.

For TTTATTTGTA, the switch fluorescence ratio was 0.99 ± 0.035.

Sequence TTGAGGTACT has a switch fluorescence ratio of 0.971 ± 0.052.

In the case of AGTATTGCTC, the switch fluorescence ratio is reported as 1.01 ± 0.024.

GGATGGGATG showed a switch fluorescence ratio of 0.989 ± 0.04.

TCTTATCTTG showed a switch fluorescence ratio of 0.978 ± 0.037.

AAACAGATAA showed a switch fluorescence ratio of 1.04 ± 0.084.

In the case of TTGGCCGGAT, the switch fluorescence ratio is reported as 0.9532 ± 0.0042.

With GTTATTATAG the switch fluorescence ratio was 0.992 ± 0.005.

In the case of CATGCTTTCT, the switch fluorescence ratio is reported as 0.9836 ± 0.0079.

In the case of ATTAGTAGTT, the switch fluorescence ratio is reported as 0.996 ± 0.057.

For TGGAATTGGT, the switch fluorescence ratio was 1.02 ± 0.032.

For ACGGTGTTGG, the switch fluorescence ratio was 1.02 ± 0.021.

For ACGGTTGTAC, the switch fluorescence ratio was 1.1813 ± 0.001.

Sequence TTAGGCTACT has a switch fluorescence ratio of 1.01 ± 0.035.

CTAGGACAGC gave a switch fluorescence ratio of 0.994 ± 0.012.

With TATGTAGTAG the switch fluorescence ratio was 0.971 ± 0.042.

For TGTTTTTGAG, the switch fluorescence ratio was 0.9888 ± 0.0034.

In the case of AAGAGCAGGG, the switch fluorescence ratio is reported as 0.975 ± 0.011.

With AATTAAGGGG the switch fluorescence ratio was 0.997 ± 0.029.

Work on TACTTAGCCC yielded a switch fluorescence ratio of 1.07 ± 0.022.

AAAGAAAAGG gave a switch fluorescence ratio of 0.989 ± 0.0065.

With AGTGGACGAC the switch fluorescence ratio was 0.9912 ± 0.0079.

In the case of GAGAGCCGTC, the switch fluorescence ratio is reported as 1.08 ± 0.13.

AAAAGGGACG was tested, and the switch fluorescence ratio was 1.05 ± 0.12.

In the case of GGCCCCCGGC, the switch fluorescence ratio is reported as 0.969 ± 0.026.

For ATGCCGGAG, the switch fluorescence ratio was 0.986 ± 0.028.

CTTCGGTGTG showed a switch fluorescence ratio of 1.04 ± 0.13.

GGAGTTGATT was tested, and the switch fluorescence ratio was 0.9808 ± 0.0015.

CGCTGAGCTG showed a switch fluorescence ratio of 1 ± 0.029.

In the case of ATTGGTTGTT, the switch fluorescence ratio is reported as 1.01 ± 0.036.

— the supplement of paper PMC10126150
